This is an account of results in US20100247430A1 (published 2010).

This assay addresses Dlg1 (endogenous, mouse T cells) (mouse, UniProt Q811D0 1-905, limits assumed). Put plainly: co-immunoprecipitation from activated mouse CD4+ T cell extracts, anti-Dlg1 IP, anti-Crtam immunoblot. On the procedure:
(A) Naïve CD4⁺ T cells from Crtam^{-/+} and Crtam^{-/-} mice were activated for the indicated times and cell extracts were immunoprecipitated with Abs against Scrib (upper panels) or Dlg1 (lower panels). Immune complexes were then analyzed by immunoblotting against Crtam. Data shown are representative of five independent experiments.
To assess the interaction of Crtam and PDZ-containing proteins, microbead purified CD4⁺ T cells were stimulated with plate-bound […] (10 μg/ml) and anti-CD28 (2 μg/ml) mAbs, whole cell extracts were immunoprecipitated using anti-Scrib antibody (K-21, Santa Cruz) and immune complexes analyzed by immunoblotting with anti-Crtam mAb (6E2, Genentech) or anti-Scrib Ab (H-300, Santa Cruz). The control experiment was performed using anti-Dlg1 Ab (H-60, Santa Cruz) for immunoprecipitation. […] Crtam-Flag was immunoprecipitated using anti-Flag M2-agarose beads (Sigma) and immune complexes were analyzed by immunoblotting with anti-GST (GE Healthcare Bio-Sciences) or anti-Crtam (6E2) mAbs.
To define the mechanism(s) by which Crtam regulates T cell morphology, we analyzed the ability of Scrib and Dlg1 to co-immunoprecipitate with Crtam in resting and activated T cells (FIG. 5A). Crtam was detected in Scrib, but not Dlg1, immunoprecipitates 14 h following TCR activation. […]
(A western blot detects proteins with antibodies after separation by electrophoresis.)

Chain of Dlg1 (endogenous, mouse T cells) (Q811D0 whole entry): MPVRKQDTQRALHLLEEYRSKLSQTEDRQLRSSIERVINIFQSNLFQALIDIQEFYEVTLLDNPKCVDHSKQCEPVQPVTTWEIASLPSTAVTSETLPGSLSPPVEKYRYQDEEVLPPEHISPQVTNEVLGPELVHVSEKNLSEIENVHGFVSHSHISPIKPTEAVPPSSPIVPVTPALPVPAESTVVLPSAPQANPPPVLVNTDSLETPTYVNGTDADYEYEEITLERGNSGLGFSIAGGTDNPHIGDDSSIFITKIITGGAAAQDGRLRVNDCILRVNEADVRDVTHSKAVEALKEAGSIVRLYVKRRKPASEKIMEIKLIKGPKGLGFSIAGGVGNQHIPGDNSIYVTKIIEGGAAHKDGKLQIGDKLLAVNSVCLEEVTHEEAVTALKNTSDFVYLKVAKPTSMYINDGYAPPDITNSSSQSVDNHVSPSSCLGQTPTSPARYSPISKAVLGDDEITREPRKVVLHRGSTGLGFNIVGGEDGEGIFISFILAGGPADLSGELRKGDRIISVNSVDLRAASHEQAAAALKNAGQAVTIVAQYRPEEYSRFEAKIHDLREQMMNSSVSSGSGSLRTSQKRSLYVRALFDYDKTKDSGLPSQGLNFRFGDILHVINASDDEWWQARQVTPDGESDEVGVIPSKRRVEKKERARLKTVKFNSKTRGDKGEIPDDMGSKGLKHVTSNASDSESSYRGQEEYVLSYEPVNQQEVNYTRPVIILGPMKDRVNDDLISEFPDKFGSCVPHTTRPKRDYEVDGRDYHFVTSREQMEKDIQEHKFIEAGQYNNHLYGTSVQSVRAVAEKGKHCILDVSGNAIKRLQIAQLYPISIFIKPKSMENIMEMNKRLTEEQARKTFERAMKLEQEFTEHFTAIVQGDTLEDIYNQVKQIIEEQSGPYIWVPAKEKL

B1: mouse Crtam (endogenous, on activated mouse T cells) (receptor)
chain: AFLKMETVTVEEGQTLTLTCVTSQTKNVSLQWLAPSGFTIFLNQHPALKSSKYQLLHHSATQLSISVSNVTLREEGVYTCLHYGSSVKTKQVRVTVLVTPFQPTVEALVLRRQNGEKSVVLKCSTERSKPPPQITWLLGEGLEIYGELHHEFEADGKICNTSSTLIARAYGKNSTVHCIIQHEGLHGRKLVAPFQFEDLVADQETTSDAPEQSSLSSQALQQPTSTVSMMENSSIPETDKEEKEHATQDPGLSTASAQHTGLARRKSGILLLTLVSFLIFILFIIVQLFIMKLRKAHVVWKKESEISEQALESYRSRSNNEETSSQENSSQAPQSKRCMNYITQLYSGAKTKKSAQHWKLGGKHSRVPESIV
notes: Endogenous protein of mouse CD4+ or CD8+ T cells; In the co-immunoprecipitations it came from whole cell extracts; In flow cytometry and the Cadm1(ECD)-Fc assay it was on the cell surface; also called class-I MHC restricted T-cell associated molecule
B1: the binding result is listed as “no binding”.
